Assays:
[1] = target: T1, human PD-L1 (Programmed Cell Death 1 Ligand 1) (human, UniProt Q9NZQ7 19-290); assay: Scatchard analysis on cells (MDA-MB-231 used for binding assays), 3-3000 pM ^111In-PD-L1.3.1, 4 h on ice, gamma counter; 111In-labeled antibody; Scatchard affinity on MDA-MB-231 cells
T1 construct: whole, on cells; Endogenous PD-L1 on breast cancer cell lines; also called CD274; PDCD1LG1
Method: (§1) Cells were cultured to confluency in six-well plates and were incubated for 4 h on ice with increasing concentrations ¹¹¹In-PD-L1.3.1 (3-3000 pM) in 1 ml RPMI1640 containing 0.5% BSA. Non-specific binding was determined by co-incubation with 100 nM PD-L1.3.1. After incubation, cells were washed with PBS and the cell-associated activity was measured in a shielded well-type gamma counter. The specific binding (total binding−nonspecific binding) was plotted against the bound/free ratio. Data were analyzed by linear regression to determine PD-L1 receptor density per cell and to determine the Kd of ¹¹¹In-PD-L1.3.1.

[2] = target: T1, human PD-L1 (Programmed Cell Death 1 …); assay: saturation binding / Scatchard analysis on cells, 3-3000 pM ^111In-PD-L1.3.1 in 1 ml, 4 h on ice, non-specific binding (100 nM PD-L1.3.1) subtracted; the panel does not name the cell line (MDA-MB-231 cells were used in subsequent binding assays)
Method: as §1

[3] = target: T1, human PD-L1 (Programmed Cell Death 1 …); assay: competition on MDA-MB-231 cells, 4 h on ice; unlabeled PD-L1.3.1 (1-1000 pM) against 20 pM ^111In-PD-L1.3.1 as competitor; gamma counter; unlabeled antibody; competition IC50 on MDA-MB-231 cells
Method: MDA-MB-231 cells were cultured to confluency in six-well plates. The 50% inhibitory concentration (IC₅₀) of PD-L1.3.1 blocking of ¹¹¹In-PD-L1.3.1 binding was determined by incubating the cells for 4 h on ice in 1 ml RPMI1640 0.5% BSA, containing 20 pM ¹¹¹In-PD-L1.3.1 (1 kBq) and increasing concentrations of unlabeled PD-L1.3.1 (1-1000 pM). After incubation, cells were washed with PBS and the cell-associated activity was measured in a gamma counter. The IC₅₀ was defined as the antibody concentration that was required to inhibit binding of the radio labeled antibody by 50%. IC₅₀ values were calculated using GraphPad Prism.

T1 sequence (Q9NZQ7 19-290): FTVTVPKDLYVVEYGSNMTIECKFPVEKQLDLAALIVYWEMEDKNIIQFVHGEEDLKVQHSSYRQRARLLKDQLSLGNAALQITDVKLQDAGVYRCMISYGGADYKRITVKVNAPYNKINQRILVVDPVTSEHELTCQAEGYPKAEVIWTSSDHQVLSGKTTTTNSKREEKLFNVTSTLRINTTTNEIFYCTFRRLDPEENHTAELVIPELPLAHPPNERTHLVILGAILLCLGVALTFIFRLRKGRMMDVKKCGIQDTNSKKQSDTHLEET

Binder | Kd [1] | Kd [2] | IC50 [3]
^111In-DTPA-PD-L1.3.1 (antibody, V domains shown, ITC-DTPA conjugated and chelating ^111In; residues and chain not stated) VH: EVQLQQSGTELVKPGASVKLSCTTSGFNIQDTYMHWVKQRPEQGLEWIGWIDPANGNTKYDPKFQGKATIIADTSSNTAYLQLRGLTSEDTAVYYCARSGVSTAHFDYWGQGTTLTVSS VL: QIVLSQSPAILSASPGEKVTMTCRASSSVSFMHWYQQKPGSSPKPWIYATSNLASGVPTRFSGSGSGTSYSLTLSRVEAEDAATYYCQQWSSYPRTFGGGTKLEIK | 0.97 nM | 1 nM | –
PD-L1.3.1 antibody (murine monoclonal IgG1, unlabeled) (antibody, V domains shown, also called PD-L1.3.1 mAb; unlabeled PD-L1.3.1) VH: EVQLQQSGTELVKPGASVKLSCTTSGFNIQDTYMHWVKQRPEQGLEWIGWIDPANGNTKYDPKFQGKATIIADTSSNTAYLQLRGLTSEDTAVYYCARSGVSTAHFDYWGQGTTLTVSS VL: QIVLSQSPAILSASPGEKVTMTCRASSSVSFMHWYQQKPGSSPKPWIYATSNLASGVPTRFSGSGSGTSYSLTLSRVEAEDAATYYCQQWSSYPRTFGGGTKLEIK | – | – | 0.15 nM

Reference: patent US20180064825A1 (INSERM INSTITUT NATIONAL DE LA SANTE ET DE LA RECHERCHE …, published 2018)
